Assay results reported in patent publication US6664048 (MAX PLANCK GESELLSCHAFT ZUR FURDERUNG DER WISSENSCHAFTEN E V, dated 2003).

Target: T1, LexA protein expressed from pBTM117c (UniProt P0A7C2 1-202)
T1 construct: range 1-220
T1 sequence (looked up): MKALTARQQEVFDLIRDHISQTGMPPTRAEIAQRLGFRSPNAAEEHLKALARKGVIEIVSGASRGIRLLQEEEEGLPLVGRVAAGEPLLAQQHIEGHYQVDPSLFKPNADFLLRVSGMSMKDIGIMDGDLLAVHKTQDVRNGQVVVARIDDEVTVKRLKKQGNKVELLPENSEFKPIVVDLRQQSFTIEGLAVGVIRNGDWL
Assay: yeast two-hybrid in L40cc, growth on SD-leu-trp-his and β-galactosidase membrane assay
Text: Detection of Clones Expressing Known Interacting Proteins From False Positives Using the Improved Two-hybrid System Pairs of the yeast two-hybrid plasmids pBTM117cSIM1 & pGAD427-ARNT, pBTM117c & pGAD427 and pBTM117c-HIP1 & pGAD427 were transformed into the yeast strain L40cc, and Trp+Leu+ transformants that contained at least one of each of the two plasmids were selected on SD-leu-trp plates. Two transformants from each transformation were investigated for the presence of protein-protein interactions by testing the ability of the yeast cells to grow on SD-leu-trp, SD-leu-trp-his, SD-leu+CAN and SD-trp+CHX plates and by the β-galactosidase membrane assay (Breeden and Nasmyth, 1985). […] After selection of the yeast strains harboring the different combinations of the two-hybrid plasmids on SD-leu+CAN and SD-trp+CHX the resulting strains were also analyzed by the β-galactosidase assay. After incubating the membrane containing all three strains on SD-trp+CHX medium only progeny of the yeast strain that originally harbored both the plasmids pBTM117c-HIP1 & pGAD427 yet which had lost the pGAD427 plasmid through counterselection turned blue after incubating in X-Gal solution. […]

B1: GAL4ad protein expressed from pGAD427 (other, yeast, UniProt P04386 768-881, looked up)
chain: ANFNQSGNIADSSLSFTFTNSSNGPNLITTQTNSQALSQPIASSNVHDNFMNNEITASKIDDGNNSKPLSPGWTDQTAYNAFGITTGMFNTTTMDDVYNYLFDDEDTPPNPKKE
notes: range 768-881
  binding result: no binding
